The source of these data is article PMC5987771.

The target in this series is T1, Pot1pC (C-terminal domain of the Pot1 DNA-binding domain) (Schizosaccharomyces pombe, UniProt O13988 198-339, V199D).
T1 sequence: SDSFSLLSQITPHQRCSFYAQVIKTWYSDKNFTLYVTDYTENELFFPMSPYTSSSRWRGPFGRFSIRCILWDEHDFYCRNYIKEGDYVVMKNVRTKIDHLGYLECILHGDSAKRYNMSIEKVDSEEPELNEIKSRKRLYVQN
Kind of series: X-ray crystallography.

As to GGTTACGGT (mixed, ribose at 1 (rG1), rest DNA) [1R], the binding result is “binds”.
